The results in this text go back to patent CN113234156A.

The target in test [1] is T1, Mb重组蛋白 (recombinant myoglobin) (UniProt P02144).
T1 sequence (looked up): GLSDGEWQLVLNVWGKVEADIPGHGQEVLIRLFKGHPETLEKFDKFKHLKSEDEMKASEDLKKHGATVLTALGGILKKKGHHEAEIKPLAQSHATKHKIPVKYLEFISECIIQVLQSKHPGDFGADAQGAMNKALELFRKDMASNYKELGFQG
Nature of the test: indirect ELISA; Mb coated 2 ug/mL; hybridoma supernatant 1/50. In general terms: ELISA stands for enzyme-linked immunosorbent assay.

Test [2] deals with T1, Mb重组蛋白 (recombinant myoglobin). Described as above. This is another data set of the same source.
For test [3] the target is unchanged. Nature of the test: indirect ELISA; Mb coated 2 ug/mL; hybridoma supernatant 1/200.
Test [4] shares this target. Nature of the test: indirect ELISA; Mb coated 2 ug/mL; hybridoma supernatant 1/400.
For test [5] the target is unchanged. Nature of the test: indirect ELISA; Mb coated 2 ug/mL; hybridoma supernatant 1/100.

B1: 鼠单克隆抗体 9B2 (antibody, part only; not given: light chain variable domain, V domains shown, part only)
VH: QVQLQQSGAALVRPGTSVKVSCKASGYAFTNYLIEWVKQRPGQGLEWIGVINPGSGGTDYNEKFKGKATLTADKSSSTAYMQLSSLTSDDSAVYFCARSSLYGSSRMDYWGQETSVTVSS
B1: the OD450 in test [1] worked out at 1.7 OD; in test [2] it was 1.69 OD; in test [3] it was 1.46 OD; in test [4], 1.27 OD; in test [5], 1.63 OD.

B2: 鼠单克隆抗体 1E6 (antibody, V domains shown)
VH: EVQLQQSGAELVKPGASVKLSCTTSGFNIKDTYIHWVRQRPEQGLEWIGNIDPANGNTKYDPEFQGKATITADTSSNTAYLHLSSLTSEDTAVYYCARVDGSRDFDYWGQGTTLTVSS
VL: DIVMTQAAPSVTVTPGESVSISCRSSKSLLYSNGNTYLYWFLQRPGQSPQLLIYRMSNLASGVPDRFSGSGSGTAFTLRISRVEAEDVGVYYCMQHLEYPLTFGGGTKLELK
B2: the OD450 in test [1] was found to be 1.73 OD; in test [2] it was 1.69 OD; in test [3], 1.18 OD; in test [4], 0.857 OD; in test [5], 1.33 OD.
